One experiment concerns human primary adipocytes. The experiment is described as follows: CRE-luciferase reporter assay in human primary adipocytes. It counts as cell-based. The source says: Differentiated murine 3T3 L1 adipocytes and primary human adipocytes were used to study signal transduction of CGH. 3T3 L1 fibroblasts were differentiated into adipocytes and the cells were transduced with recombinant adenovirus containing a reporter construct, a firefly luciferase gene under the control of cAMP response element (CRE) enhancer sequences. This assay system detects cAMP-mediated gene induction downstream of activation of Gs-coupled G-protein coupled receptors (GPCR's). […] In a separate experiment, undifferentiated 3T3 L1 fibroblasts were transduced with the recombinant adenovirus. […] In another experiment, human primary adipocytes were also transduced with the recombinant adenovirus containing a reporter construct. Treatment of the human adipocytes with isoproterenol produced a 17-fold induction of luciferase expression.
Cells were cultured at 37° C. in an 8% CO2 humidified incubator. Cells were seeded to collagen-coated 96-well plates (Becton Dickinson, cat. #356407) at a density of 5,000 cells per well. […] Luciferase activity was measured on a microplate luminometer (PerkinElmer Life Sciences, Inc., model LB 96V2R) following automated injection of 40 μl of luciferase assay substrate into each well. […]
A general note: A reporter such as luciferase makes a cellular process visible.

A further experiment relates to obese male ob/ob mice. The experiment is described as follows: Chronic 28-day treatment of ob/ob mice. It is filed as in vivo. The procedure:
Summary: CGH was administered daily for 28 days to obese male ob/ob mice. Mice were also treated with vehicle saline and thyroxine. Data was obtained for food intake, blood glucose, serum insulin, serum lipids, and serum thyroid hormone levels. At sacrifice, animals were examined for changes in liver pathology, and gross histology. […] Evaluation of liver histology sections was performed to examine the effect of CGH-mediated lipolysis on liver steatosis.
11-week old male ob/ob mice were individually caged and given a standard lab chow (4% fat) with free access to food and water. Animals were assigned to a treatment group (n=7−8, average weight 54.3±0.3 g/group), kept on a 12 hour dark cycle (6 PM to 6 AM), and injected each day between 7 and 9 AM. Chow consumed by each animal was weighed twice weekly. All animals received treatments IP in an injection volume of 0.1 ml. CGH was administered at 250 μg/kg, dissolved in sterile saline. Thyroxine (T4) was administered at 1.5 μg/mouse for 4 days, reduced to 1 μg/mouse for 10 days, and returned to 1.5 μg/mouse for the next 14 days. The vehicle controls received sterile saline. TSH was obtained from Genzyme Pharmaceuticals (Thyrogen®, Catalog number 36778; Genzyme Corporation, Cambridge, Mass.), and T4 obtained from Calbiochem, Inc. (EMD Biosciences, catalog number 61205, San Diego, Calif.) All blood draws were performed by retro-orbital puncture under isoflurane anesthesia.
After 25 days of treatment as described above, blood was sampled from all treated animals, serum separated, and analyzed for total T4 by a commercially available kit (Biocheck, Burlingame, Calif.). After 25 days of treatment, the vehicle T4 levels were 5.14±0.08 μg/dl. The CGH-treated group had T4 levels of 7.25±1.2 μg/dl, and the thyroxine-treated group had T4 levels of 9.04±0.47 μg/dl.
Subject animals were fasted for 4 hours at the beginning of the light cycle, and serum was obtained at treatment day 25 under isoflurane anesthesia. Serum Glucose levels were determined with the Cholestech LDX blood analyzer (Cholestech Corporation, Hayward Calif.), and serum insulin levels by ELISA. Serum glucose levels for vehicle and thyroxine treated groups were 306±22 and 295±23 mg/dl, respectively. […] Serum insulin levels for the vehicle and thyroxine treated groups were 33.5±1.8 and 25.9±1.7 ng/ml, respectively.
Subject animals were fasted for 4 hours at the beginning of the light cycle, and serum was obtained at treatment day 25 under isoflurane anesthesia. Triglyceride and total cholesterol levels were determined with the Cholestech LDX blood analyzer. Serum triglyceride levels for the vehicle controls were 143.7±23 mg/dl. […] Total cholesterol levels in the vehicle-treated and thyroxine-treated groups were 198±13 and 194±15 mg/dl, respectively.
Liver sections were dissected from all treatment groups described above and mounted in paraffin following fixation with NBS-formalin. Sections were mounted and stained with hematotoxylin and eosin (H&E) for visualization of hepatic structural changes. The extent of liver steatosis was evaluated on a four-point scale, from 0 to 3, with zero displaying no signs of liver steatosis, and a […], represented pronounced macrovesicular and microvesicular steatosis. […] Average scores given to the groups were vehicle (4), thyroxine (3), and CGH (1.5). […] The CGH treated sections appear to have regained hallmarks of normal hepatocyte architecture in only 28 days of treatment, with areas containing hepatocytes without lipid-laden inclusions in the cytoplasm of the cell.

B1: CGH: heterodimeric protein hormone comprised of alpha subunit GPHA2 and beta subunit GPHB5, recombinantly produced in CHO cells (protein)
chain 1: QEAVIPGCHLHPFNVTVRSDRQGTCQGSHVAQACVGHCESSAFPSRYSVLVASGYRHNITSVSQCCTISGLKKVKVQLQCVGSRREELEIFTARACQCDMCRLSRY
chain 2: ASSGNLRTFVGCAVREFTFLAKKPGCRGLRITTDACWGRCETWEKPILEPPYIEAHHRVCTYNETKQVTVKLPNCAPGVDPFYTYPVAIRCDCGACSTATTECETI
Take B1: the “induction of luciferase expression / reporter gene” value in the experiment on human primary adipocytes is 14 fold. Also, the “liver steatosis average score” value in the experiment on obese male ob/ob mice (H&E liver sections, 28 days, n=4) was 1.5. In addition, in the experiment with obese male ob/ob mice (after 25 days of treatment), the “serum total T4 levels” value stood at 7.25 ± 1.2 µg/dL. In the experiment on obese male ob/ob mice (day 25, fasted 4 hours), the Serum glucose levels worked out at 251 ± 10 mg/dL, the Serum insulin levels came out at 14.2 ± 3.6 ng/mL, the Serum triglyceride levels was determined as 100 ± 14.7 mg/dL and the Total cholesterol levels came to 104 ± 8.8 mg/dL. The Food intake in the experiment on obese male ob/ob mice (ob/ob mice, CGH 250 μg/kg IP daily, T4 1-1.5 μg/mouse) is listed as 6.3±0.09 grams/day of chow.
